Consider 14 molecules from US20230048960A1 (University of Washington, published 2023).

Square brackets hold non-standard residues; d marks the D form. dNle = CCCC[C@@H](N)C(=O)O; Nle = CCCC[C@H](N)C(=O)O

B1: AP532m (peptide)
peptide: Ac-RGE[dM]C[dY]F[dW]MNEYYGW[dT]M[dN]M[dR][Nle]GK-NH2
SMILES: CCCC[C@H](NC(=O)[C@@H](CCCNC(=N)N)NC(=O)[C@H](CCSC)NC(=O)[C@@H](CC(N)=O)NC(=O)[C@H](CCSC)NC(=O)[C@H](NC(=O)[C@H](Cc1c[nH]c2ccccc12)NC(=O)CNC(=O)[C@H](Cc1ccc(O)cc1)NC(=O)[C@H](Cc1ccc(O)cc1)NC(=O)[C@H](CCC(=O)O)NC(=O)[C@H](CC(N)=O)NC(=O)[C@H](CCSC)NC(=O)[C@@H](Cc1c[nH]c2ccccc12)NC(=O)[C@H](Cc1ccccc1)NC(=O)[C@@H](Cc1ccc(O)cc1)NC(=O)[C@H](CS)NC(=O)[C@@H](CCSC)NC(=O)[C@H](CCC(=O)O)NC(=O)CNC(=O)[C@H](CCCNC(=N)N)NC(C)=O)[C@H](C)O)C(=O)NCC(=O)N[C@@H](CCCCN)C(N)=O
B2: AP530m (peptide)
peptide: Ac-RGE[dC]N[dY]F[dW]MNEYYGW[dT]M[dN]M[dR]MGK-NH2
SMILES: CSCC[C@H](NC(=O)[C@@H](CCCNC(=N)N)NC(=O)[C@H](CCSC)NC(=O)[C@@H](CC(N)=O)NC(=O)[C@H](CCSC)NC(=O)[C@H](NC(=O)[C@H](Cc1c[nH]c2ccccc12)NC(=O)CNC(=O)[C@H](Cc1ccc(O)cc1)NC(=O)[C@H](Cc1ccc(O)cc1)NC(=O)[C@H](CCC(=O)O)NC(=O)[C@H](CC(N)=O)NC(=O)[C@H](CCSC)NC(=O)[C@@H](Cc1c[nH]c2ccccc12)NC(=O)[C@H](Cc1ccccc1)NC(=O)[C@@H](Cc1ccc(O)cc1)NC(=O)[C@H](CC(N)=O)NC(=O)[C@@H](CS)NC(=O)[C@H](CCC(=O)O)NC(=O)CNC(=O)[C@H](CCCNC(=N)N)NC(C)=O)[C@H](C)O)C(=O)NCC(=O)N[C@@H](CCCCN)C(N)=O
B3: AP533m (peptide)
peptide: Ac-RGE[dNle]N[dY]F[dW]MNEYYGW[dT]M[dN]M[dR]CGK-NH2
SMILES: CCCC[C@@H](NC(=O)[C@H](CCC(=O)O)NC(=O)CNC(=O)[C@H](CCCNC(=N)N)NC(C)=O)C(=O)N[C@@H](CC(N)=O)C(=O)N[C@H](Cc1ccc(O)cc1)C(=O)N[C@@H](Cc1ccccc1)C(=O)N[C@H](Cc1c[nH]c2ccccc12)C(=O)N[C@@H](CCSC)C(=O)N[C@@H](CC(N)=O)C(=O)N[C@@H](CCC(=O)O)C(=O)N[C@@H](Cc1ccc(O)cc1)C(=O)N[C@@H](Cc1ccc(O)cc1)C(=O)NCC(=O)N[C@@H](Cc1c[nH]c2ccccc12)C(=O)N[C@@H](C(=O)N[C@@H](CCSC)C(=O)N[C@H](CC(N)=O)C(=O)N[C@@H](CCSC)C(=O)N[C@H](CCCNC(=N)N)C(=O)N[C@@H](CS)C(=O)NCC(=O)N[C@@H](CCCCN)C(N)=O)[C@H](C)O
B4: AP535m (peptide)
peptide: Ac-RGE[dY]N[dC]F[dW]MNEYYGW[dT]M[dN]M[dR]MGK-NH2
SMILES: CSCC[C@H](NC(=O)[C@@H](CCCNC(=N)N)NC(=O)[C@H](CCSC)NC(=O)[C@@H](CC(N)=O)NC(=O)[C@H](CCSC)NC(=O)[C@H](NC(=O)[C@H](Cc1c[nH]c2ccccc12)NC(=O)CNC(=O)[C@H](Cc1ccc(O)cc1)NC(=O)[C@H](Cc1ccc(O)cc1)NC(=O)[C@H](CCC(=O)O)NC(=O)[C@H](CC(N)=O)NC(=O)[C@H](CCSC)NC(=O)[C@@H](Cc1c[nH]c2ccccc12)NC(=O)[C@H](Cc1ccccc1)NC(=O)[C@@H](CS)NC(=O)[C@H](CC(N)=O)NC(=O)[C@@H](Cc1ccc(O)cc1)NC(=O)[C@H](CCC(=O)O)NC(=O)CNC(=O)[C@H](CCCNC(=N)N)NC(C)=O)[C@H](C)O)C(=O)NCC(=O)N[C@@H](CCCCN)C(N)=O
B5: AP534m (peptide)
peptide: Ac-RGE[dNle]N[dY]F[dW]MNEYYGW[dT]M[dN]M[dC]RGK-NH2
SMILES: CCCC[C@@H](NC(=O)[C@H](CCC(=O)O)NC(=O)CNC(=O)[C@H](CCCNC(=N)N)NC(C)=O)C(=O)N[C@@H](CC(N)=O)C(=O)N[C@H](Cc1ccc(O)cc1)C(=O)N[C@@H](Cc1ccccc1)C(=O)N[C@H](Cc1c[nH]c2ccccc12)C(=O)N[C@@H](CCSC)C(=O)N[C@@H](CC(N)=O)C(=O)N[C@@H](CCC(=O)O)C(=O)N[C@@H](Cc1ccc(O)cc1)C(=O)N[C@@H](Cc1ccc(O)cc1)C(=O)NCC(=O)N[C@@H](Cc1c[nH]c2ccccc12)C(=O)N[C@@H](C(=O)N[C@@H](CCSC)C(=O)N[C@H](CC(N)=O)C(=O)N[C@@H](CCSC)C(=O)N[C@H](CS)C(=O)N[C@@H](CCCNC(=N)N)C(=O)NCC(=O)N[C@@H](CCCCN)C(N)=O)[C@H](C)O
B6: AP501m (peptide)
peptide: Ac-RGN[dW]N[dE]S[dK]MNEYYGW[dM]L[dM]C[dT]MGR-NH2
SMILES: CSCC[C@H](NC(=O)[C@@H](CCCCN)NC(=O)[C@H](CO)NC(=O)[C@@H](CCC(=O)O)NC(=O)[C@H](CC(N)=O)NC(=O)[C@@H](Cc1c[nH]c2ccccc12)NC(=O)[C@H](CC(N)=O)NC(=O)CNC(=O)[C@H](CCCNC(=N)N)NC(C)=O)C(=O)N[C@@H](CC(N)=O)C(=O)N[C@@H](CCC(=O)O)C(=O)N[C@@H](Cc1ccc(O)cc1)C(=O)N[C@@H](Cc1ccc(O)cc1)C(=O)NCC(=O)N[C@@H](Cc1c[nH]c2ccccc12)C(=O)N[C@H](CCSC)C(=O)N[C@@H](CC(C)C)C(=O)N[C@H](CCSC)C(=O)N[C@@H](CS)C(=O)N[C@@H](C(=O)N[C@@H](CCSC)C(=O)NCC(=O)N[C@@H](CCCNC(=N)N)C(N)=O)[C@H](C)O
B7: AP531m (peptide)
peptide: Ac-RGE[dC]N[dY]F[dW]MNEYYGW[dT]M[dN]M[dR][Nle]GK-NH2
SMILES: CCCC[C@H](NC(=O)[C@@H](CCCNC(=N)N)NC(=O)[C@H](CCSC)NC(=O)[C@@H](CC(N)=O)NC(=O)[C@H](CCSC)NC(=O)[C@H](NC(=O)[C@H](Cc1c[nH]c2ccccc12)NC(=O)CNC(=O)[C@H](Cc1ccc(O)cc1)NC(=O)[C@H](Cc1ccc(O)cc1)NC(=O)[C@H](CCC(=O)O)NC(=O)[C@H](CC(N)=O)NC(=O)[C@H](CCSC)NC(=O)[C@@H](Cc1c[nH]c2ccccc12)NC(=O)[C@H](Cc1ccccc1)NC(=O)[C@@H](Cc1ccc(O)cc1)NC(=O)[C@H](CC(N)=O)NC(=O)[C@@H](CS)NC(=O)[C@H](CCC(=O)O)NC(=O)CNC(=O)[C@H](CCCNC(=N)N)NC(C)=O)[C@H](C)O)C(=O)NCC(=O)N[C@@H](CCCCN)C(N)=O

The test deals with Aβ42 (UniProt P05067 672-713). Description: cell-based or functional assay.
Chain of Aβ42 (P05067 672-713 limits assumed): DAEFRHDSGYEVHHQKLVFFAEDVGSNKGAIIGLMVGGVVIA
Regarding B1, the “% inhibition of fibril formation (ThT), AP:Aβ42 1:1” value was 62.1%; the “% inhibition of fibril formation (ThT), AP:Aβ42 1:10” value is 0%; the “% inhibition of fibril formation (ThT), AP:Aβ42 1:100” value (from here on “% inhibition … AP:Aβ42 1:100”) is 0%.

In the case of B2, the “% inhibition of fibril formation (ThT), AP:Aβ42 1:1” value came to 78.2%; the “% inhibition of fibril formation (ThT), AP:Aβ42 1:10” value was 31.6%; the “% inhibition … AP:Aβ42 1:100” value worked out at 0%.

Turning to Ac-RGE[dNle]N[dY]F[dW]MNEYYGW[dT]M[dN]M[dR]CGK-NH2 (also: disulfide-linked homodimer via Cys21) [AP533d], the “% inhibition of fibril formation (ThT), AP:Aβ42 1:1” value amounted to 85.2%; the “% inhibition of fibril formation (ThT), AP:Aβ42 1:10” value was 68.2%; the “% inhibition … AP:Aβ42 1:100” value worked out at 51.4%.

Regarding B3, the “% inhibition of fibril formation (ThT), AP:Aβ42 1:1” value stood at 40.3%; the “% inhibition of fibril formation (ThT), AP:Aβ42 1:10” value was 0%; the “% inhibition … AP:Aβ42 1:100” value was 0%.

In the case of Ac-[dR]G[dE]M[dN]L[dS]W[dM][dN][dE][dY][dS]G[dW]T[dM]N[dC]K[dM]G[dR]-NH2 (also: homodimer: D-Cys19 disulfide-bonded to D-Cys19 of other copy) [AP526d], the “% inhibition of fibril formation (ThT), AP:Aβ42 1:1” value was determined as 100%; the “% inhibition of fibril formation (ThT), AP:Aβ42 1:10” value came to 88.6%; the “% inhibition … AP:Aβ42 1:100” value was 62.4%.

As to B4, the “% inhibition of fibril formation (ThT), AP:Aβ42 1:1” value is 62.3%; the “% inhibition of fibril formation (ThT), AP:Aβ42 1:10” value is 31.3%; the “% inhibition … AP:Aβ42 1:100” value came out at 0%.

Consider Ac-RGN[dW]N[dE]S[dK]MNEYSGW[dM]L[dM]C[dT]MGR-NH2 (also: disulfide-linked homodimer via Cys19) [AP500d], for which the “% inhibition of fibril formation (ThT), AP:Aβ42 1:1” value worked out at 100%; the “% inhibition of fibril formation (ThT), AP:Aβ42 1:10” value was determined as 100%; the “% inhibition … AP:Aβ42 1:100” value is 72.2%.

With Ac-RGE[dM]C[dY]F[dW]MNEYYGW[dT]M[dN]M[dR][Nle]GK-NH2 (also: disulfide-linked homodimer via Cys5) [AP532d], the “% inhibition of fibril formation (ThT), AP:Aβ42 1:1” value is 94.2%; the “% inhibition of fibril formation (ThT), AP:Aβ42 1:10” value is 75.4%; the “% inhibition … AP:Aβ42 1:100” value came out at 64.3%.

In the case of Ac-RGE[dY]N[dC]F[dW]MNEYYGW[dT]M[dN]M[dR]MGK-NH2 (also: homodimer: D-Cys6 disulfide-bonded to D-Cys6 of other copy) [AP535d], the “% inhibition of fibril formation (ThT), AP:Aβ42 1:1” value worked out at 100%; the “% inhibition of fibril formation (ThT), AP:Aβ42 1:10” value worked out at 98.2%; the “% inhibition … AP:Aβ42 1:100” value was 53.7%.

As for B5, the “% inhibition of fibril formation (ThT), AP:Aβ42 1:1” value was 40.2%; the “% inhibition of fibril formation (ThT), AP:Aβ42 1:10” value stood at 11.2%; the “% inhibition … AP:Aβ42 1:100” value was 0%.

In the case of B6, the “% inhibition of fibril formation (ThT), AP:Aβ42 1:1” value worked out at 29.2%; the “% inhibition of fibril formation (ThT), AP:Aβ42 1:10” value came out at 0%; the “% inhibition … AP:Aβ42 1:100” value worked out at 0%.

Turning to Ac-RGE[dNle]N[dY]F[dW]MNEYYGW[dT]M[dN]M[dC]RGK-NH2 (also: disulfide-linked homodimer via Cys20) [AP534d], the “% inhibition of fibril formation (ThT), AP:Aβ42 1:1” value was 100%; the “% inhibition of fibril formation (ThT), AP:Aβ42 1:10” value stood at 92.2%; the “% inhibition … AP:Aβ42 1:100” value stood at 51.3%.

B7: the “% inhibition of fibril formation (ThT), AP:Aβ42 1:1” value was determined as 37.2%; the “% inhibition of fibril formation (ThT), AP:Aβ42 1:10” value is 9.1%; the “% inhibition … AP:Aβ42 1:100” value came to 0%.

Ac-RGE[dC]N[dY]F[dW]MNEYYGW[dT]M[dN]M[dR][Nle]GK-NH2 (also: disulfide-linked homodimer via Cys4) [AP531d]: the “% inhibition of fibril formation (ThT), AP:Aβ42 1:1” value is 92.6%; the “% inhibition of fibril formation (ThT), AP:Aβ42 1:10” value is 78.6%; the “% inhibition … AP:Aβ42 1:100” value worked out at 38.5%.
